Numbering of substitutions follows the chain as printed.

In general, Kd refers to the concentration at which binding is half-saturated.

For data set [1], the target named is T1, A647-SsoSSB A114C (Sulfolobus solfataricus, UniProt Q97W73 1-148, A114C).
T1 sequence: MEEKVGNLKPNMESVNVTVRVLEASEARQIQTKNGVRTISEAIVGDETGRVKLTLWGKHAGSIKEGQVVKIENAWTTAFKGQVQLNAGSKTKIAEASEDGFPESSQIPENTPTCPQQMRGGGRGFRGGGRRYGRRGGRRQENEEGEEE
Description: ensemble FRET; Hill model, 1.8 ± 0.2; 50 mM Tris-HCl pH 7.6, 10 mM KCl, 5% glycerol, 0.1 mg/ml BSA, 5-50 nM DNA, 20 C (PIFE also 65 C). The conditions noted are these: protein: recombinant; chain copies: 2; label: 3' Cy3 (amino); single strand.

Data set [2] addresses T1, A647-SsoSSB A114C. As to the kind of experiment: ensemble FRET; two-site model, first monomer; 50 mM Tris-HCl pH 7.6, 10 mM KCl, 5% glycerol, 0.1 mg/ml BSA, 5-50 nM DNA, 20 C (PIFE also 65 C). The conditions noted are these: protein: recombinant; chain copies: 2; label: 3' Cy3 (amino); single strand.
Data set [3] has as its target T1, A647-SsoSSB A114C. As to the kind of experiment: ensemble FRET; two-site model, second monomer; 50 mM Tris-HCl pH 7.6, 10 mM KCl, 5% glycerol, 0.1 mg/ml BSA, 5-50 nM DNA, 20 C (PIFE also 65 C). The conditions noted are these: protein: recombinant; chain copies: 2; label: 3' Cy3 (amino); single strand.
Data set [4] has as its target T2, SsoSSB wild-type (Sulfolobus solfataricus (Methods print …, UniProt Q97W73 1-148)).
T2 sequence: T1 sequence with C114A
Description: fluorescence titration (PIFE); 65 C; Hill 1.4 ± 0.2; 50 mM Tris-HCl pH 7.6, 10 mM KCl, 5% glycerol, 0.1 mg/ml BSA, 5-50 nM DNA, 20 C (PIFE also 65 C). The settings on record: protein: recombinant; chain copies: 2; label: 3' Cy3 (amino); single strand.

Data set [5] has as its target T2, SsoSSB wild-type. Description: fluorescence titration (PIFE); 20 C, 10 mM KCl; Hill 1.8 ± 0.2; 50 mM Tris-HCl pH 7.6, 10 mM KCl, 5% glycerol, 0.1 mg/ml BSA, 5-50 nM DNA, 20 C (PIFE also 65 C). The conditions noted are these: protein: recombinant; chain copies: 2; label: 3' Cy3 (amino); single strand.
Data set [6] deals with T1, A647-SsoSSB A114C. As to the kind of experiment: fluorescence self-quenching titration; 10 mM KCl; Hill 1.4 ± 0.2 in text; Fig 2 legend gives 20 ± 1 nM, Hill 1.3; 50 mM Tris-HCl pH 7.6, 10 mM KCl, 5% glycerol, 0.1 mg/ml BSA, 5-50 nM DNA, 20 C (PIFE also 65 C). The conditions noted are these: protein: recombinant; chain copies: 2; single strand.
Data set [7] deals with T2, SsoSSB wild-type. As to the kind of experiment: tryptophan fluorescence quenching; Hill model; 50 mM Tris-HCl pH 7.6, 10 mM KCl, 5% glycerol, 0.1 mg/ml BSA, 5-50 nM DNA, 20 C (PIFE also 65 C). The settings on record: protein: recombinant; chain copies: 2; single strand.
Data set [8] addresses T1, A647-SsoSSB A114C. As to the kind of experiment: single-molecule FRET kinetics; first monomer; kon 0.032 nM-1 s-1, koff ~1.75 s-1; 10 mM KCl; 50 mM Tris-HCl pH 7.6, 10 mM KCl, 5% glycerol, 0.1 mg/ml BSA, 5-50 nM DNA, 20 C (PIFE also 65 C). The conditions noted are these: protein: recombinant; chain copies: 2; label: 5' biotin, 3' Cy3; single strand.
Data set [9] has as its target T1, A647-SsoSSB A114C. Description: single-molecule FRET/PIFE/quenching kinetics; second monomer; kon 0.16 nM-1 s-1, koff 0.31 s-1; 10 mM KCl; 50 mM Tris-HCl pH 7.6, 10 mM KCl, 5% glycerol, 0.1 mg/ml BSA, 5-50 nM DNA, 20 C (PIFE also 65 C). The conditions noted are these: protein: recombinant; chain copies: 2; label: 5' biotin, 3' Cy3; single strand.
Data set [10] addresses T1, A647-SsoSSB A114C. Description: single-molecule FRET/PIFE/quenching kinetics; S4 pathway, two monomers in one step; kon 0.006 nM-1 s-1, koff 0.33 s-1; 50 mM Tris-HCl pH 7.6, 10 mM KCl, 5% glycerol, 0.1 mg/ml BSA, 5-50 nM DNA, 20 C (PIFE also 65 C). The settings on record: protein: recombinant; chain copies: 2; label: 5' biotin, 3' Cy3; single strand.

Consider CCCCCCCCCCCC (ssDNA) [dC12Cy3], for which the Kd with A647-SsoSSB A114C [1] came to 24 ± 2 nM; with A647-SsoSSB A114C [2] it was 37 ± 4 nM; with A647-SsoSSB A114C [3], 2.8 ± 1 nM; with SsoSSB wild-type [4] it was 15 ± 1 nM; with SsoSSB wild-type [5], 9 ± 1 nM.
Turning to CCCCCCCCCCCC (ssDNA) [dC12], the Kd in the data set with A647-SsoSSB A114C [6] worked out at 22 ± 1 nM.
Consider TTTTTT (ssDNA) [dT6], for which the Kd in the data set with SsoSSB wild-type [7] was 143 ± 95 nM.
With CCCCCCCCCCCC (ssDNA) [BidC12Cy3], the figures for the Kd with A647-SsoSSB A114C [8], with A647-SsoSSB A114C [9] and in the data set with A647-SsoSSB A114C [10] were 54 ± 2 nM, around 2 nM and around 57 nM, respectively.

Source of the values: article PMC4678828, “Binding dynamics of a monomeric SSB protein to DNA: a single-molecule multi-process approach”.
